The results in this text go back to patent US20260098092A1 (CHULALONGKORN UNIVERSITY, published 2026).

Positions count from the first letter of the chain named.

B1: xCUSB0103 (antibody, human IgG4, V domains shown)
VH: DVKLVESGGGLVKPGGSLKLSCAASGFTFSSYTMSWVRQTPEKRLEWVAAISGGGSYTYYADSVKGRFTISRDNAKNTLSLQMSSLKSEDTAMYFCTSPYDFAMDYWGQGTSVTVSS
VL: DIQMTQTTSSLSASLGDRVTISCRASQDITNYLNWYQQKPDGSVKLLIYYTSRLHSGVPSRFRGSGSGTDYSLTISNLEQEDIATYFCQQGNTLPWTFGGGTKLEIK
notes: Chimeric: mouse variable regions joined to human IgG4/kappa constant regions; also called chimeric CUSB0103; not shown: human IgG4 constant region, UniProt P01861; human kappa constant region, UniProt P01834
B2: xCUSB0124 (antibody, human IgG4, V domains shown)
VH: QIQLVQSGPELKKPGETVKISCKASGYIFTNYGVTWVKQTPGKGLKWMTWINTNTGEPTSAEEFKGRFDFSSETSATTAYLQINNLKNEDTATYFCVRIRENAMDYWGQGTSVTVSS
VL: DIQMTQSPASQSASLGESVTITCLASQTIGTWLAWYQQKPGKSPQLLIYAATRLAVGVPSRFSGSGSGTKFSFKISRLQAEDFVSYYCQQLYSTPFTFGSGTKLEIK
notes: Chimeric: mouse variable regions joined to human IgG4/kappa constant regions; also called chimeric CUSB0124; not shown: human IgG4 constant region, UniProt P01861; human kappa constant region, UniProt P01834
B3: xCUSB0126 (antibody, human IgG4, V domains shown)
VH: VKLVESGGDLVKPGGSLKLSCAASGFPFSSYLMSWVRQTPEKRLEWVAAISGGGRDTYYPDNVKGRFTISRDNARNILYLQMSSLRSEDTAVYYCATRGSYAMDYWGQGTSVTVSS
VL: B2 VL with L46I, R53N, V56D, R77S, T94I, F96W, S100G
notes: Chimeric: mouse variable regions joined to human IgG4/kappa constant regions; also called chimeric CUSB0126; not shown: human IgG4 constant region, UniProt P01861; human kappa constant region, UniProt P01834
B4: xCUSB0129 (antibody, human IgG4, V domains shown)
VH: B3 VH with D9G, N62S, V92L, T97R
VL: B2 VL with L46I, A50D, R53N, V56D, R77S, T94I, F96W, S100G
notes: Chimeric: mouse variable regions joined to human IgG4/kappa constant regions; also called chimeric CUSB0129; not shown: human IgG4 constant region, UniProt P01861; human kappa constant region, UniProt P01834
B5: Modified Seq16 (modified zCUSB0136.8 antibody) (antibody, V domains shown)
VH: QVQLQESGPGLVKPSETLSLTCTVSGFSLTTYDIIWIRQSPGKGLEWLGVIWTGGDTTYNSAFMSRLTISKDTSKNQISLKMSSLTAADTAVYYCARDWAYWGQGTLVTVSS
VL: DIVLTQSPDSLAVSLGERATISCRASESVDNYGNSFIQWYQQKPGQPPKLLIYFASYLQSGVPDRFSGSGSGTDFTLTISSVQAEDVATYYCHQNNEDPFTFGGGTKLEIK
B6: mCUSB0103 (antibody, V domains shown)
VH: B1 VH
VL: B1 VL
notes: Mouse monoclonal antibody purified from hybridoma
B7: mCUSB0136 (antibody, V domains shown)
VH: QVQLKESGPGLVAPSQSLSITCTVSGFSLTTYDIIWIRQSPGKGLEWLGVIWTGGDTNYNSAFMSRLSISKDNSKSQIFLKMNSLQTDDTAIYYCVRDWAYWGQGTLVTVST
VL: NIVLTQSPASLAVSLGQRATISCRASESVDNYGNSFIQWYQQKPGQPPKLLIYFASNLQSGVPARFSGSGSRTDFTLTIDPVEADDAATYYCHQNNEDPFTFGSGTKLEIK
notes: as for B6
B8: mCUSB0125 (antibody, V domains shown)
VH: DVQLRESGPGLVKPSQSLSLTCTVTGYSITSDYAWNWIRQFPGNKLEWMGYIYYSGTTSYNPSLKSRISITRDTSKNQFFLQLNSVTTEDTATYYCARNYGSAFYYFDYWGQGTTLTVSS
VL: DILMTQSPSSMSVSLGDTVTITCHASQGISSNIGWLQQKPGKSFKGLIYRGTNLEDGVPSRFSGSGSGADYSLTISSLESEDFADYYCVQYAQFPPTFGGGTKLEIK
notes: as for B6
B9: mCUSB0124 (antibody, V domains shown)
VH: B2 VH
VL: B2 VL
notes: as for B6
B10: mCUSB0126 (antibody, V domains shown)
VH: B3 VH
VL: B2 VL with L46I, R53N, V56D, R77S, T94I, F96W, S100G
notes: as for B6
B11: mCUSB0129 (antibody, V domains shown)
VH: B3 VH with D9G, N62S, V92L, T97R
VL: B2 VL with L46I, A50D, R53N, V56D, R77S, T94I, F96W, S100G
notes: as for B6
B12: mCUSB0123 (antibody, V domains shown)
VH: QVQLQQSGPELVRPGESVKISCKGSGYTFTDYVMHWVKQSHAKSLEWIGVITIYNDITNYNQKFKGKATMTIDKSSSTAYMELARLTSEDSAIYYCAREGYDSYWYFDVWGAGTTVTVSS
VL: DVLMTQTPLSLPVSLGDQASISCRSSQTIVHSNGNTYLEWYLQKPGQSPKLLIYKVSNRFSGVPDRFSGSGSGTDFTLKISRVEAEDLGVYYCFQGSHLPYTFGGGTKLEIK
notes: as for B6
B13: zCUSB0136.8-1 (antibody, V domains shown)
VH: B5 VH with T58W
VL: B5 VL with Y32W
notes: also called CUSB0136-BMVH.3a with CUSB0136-BMVL.2a
B14: zCUSB0136.8-3 (antibody, V domains shown)
VH: B5 VH with T31V
VL: B5 VL
notes: also called CUSB0136-BMVH.3c with CUSB0136-BMVL.2b
B15: zCUSB0136.8-2 (antibody, V domains shown)
VH: B5 VH with T31V, A100I
VL: B5 VL
notes: also called CUSB0136-BMVH.3b with CUSB0136-BMVL.2b
B16: zCUSB0136.8-4 (antibody, V domains shown)
VH: B5 VH with T31V, A100M
VL: B5 VL
notes: also called CUSB0136-BMVH.3d with CUSB0136-BMVL.2b

T1 sequence (Q15116 25-167 limits assumed): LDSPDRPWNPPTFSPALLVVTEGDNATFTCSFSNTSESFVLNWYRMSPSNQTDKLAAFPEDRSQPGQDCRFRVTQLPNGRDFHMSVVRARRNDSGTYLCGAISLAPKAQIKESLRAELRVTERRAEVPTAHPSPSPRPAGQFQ

The first experiment addresses T1, recombinant human PD-1 His-tag protein (R&D Systems) (human, UniProt Q15116 25-167).
T1 construct: Bought reagent; Used for the ELISA (coated) and for SPR (analyte); also called PD-1 protein; human PD-1 protein; not shown: His-tag
The experiment can be described thus: SPR, Biacore T200, antibody captured on Protein G chip, PD-1 His-tag injected, single-cycle kinetics, 1:1 model. Here is the method:
(§1) The Biacore T200 instrument, equipped with a Protein G sensor chip (GE Healthcare), was used to determine the binding kinetics between chimeric anti-PD-1 antibodies and PD-1 protein. Each purified chimeric anti-PD-1 antibody (1 μg/mL) was injected into the chip with a flow rate of 30 μL/min for 60 sec. […] The HBS-EP+buffer (GE Healthcare) was used as a buffer blank and diluent. The association constant (kₒₙ), dissociation constant (koff), and equilibrium constant (KD) values were calculated using Biacore T200 evaluation software (version 3.1) with a 1:1 Langmuir binding model curve fitting.
(SPR reads the build-up and loss of mass on a sensor chip optically.)
As usually defined, the Kd is the constant that tells how readily two partners part at equilibrium. The term koff denotes a measure of how fast the partners let go of each other. As a reminder, the kon is a measure of how fast the partners come together. As for B1, the Kd is 0.448 nM, the koff amounted to 0.000292 s⁻¹ and the kon came to 653000 M⁻¹ s⁻¹.
Take B2: the Kd was 5.92 nM, the off-rate (koff) is 0.000912 s⁻¹ and the kon came out at 154000 M⁻¹ s⁻¹.
As to B3, the Kd came to 0.577 nM, the koff is 0.000285 s⁻¹ and the association rate constant (kon) came out at 493000 M⁻¹ s⁻¹.
The like results for B4 were, in that order, 0.621 nM, 0.000293 s⁻¹ and 471000 M⁻¹ s⁻¹.

The target in a further experiment is T1, recombinant human PD-1 His-tag protein …. The experiment can be described thus: binding kinetics (method not described at the table; presumably SPR as in Example 8).
For the molecule B5, the Kd came out at 0.0266 nM, the koff amounted to 9.31e-05 s⁻¹ and the kon amounted to 3.5e+06 M⁻¹ s⁻¹.

The target is the same in the next experiment. In words: ELISA, PD-1 His-tag coated on plate, anti-mouse IgG Fc-HRP detection. The procedure:
(§2) ELISA technique was used to select hybridoma mini-pools producing anti-PD-1 antibodies using the following procedure. MaxiSorp ELISA plate was coated with PD-1 His-tag (R&D System) in PBS buffer (10 ng/100 μL/well) at 4° C. overnight. […] The culture supernatant of each mini-pool (100 μL) was added to the plate then incubated for 1 hour at 37° C. After washing, the plate was probed with goat anti-mouse IgG Fcγ-HRP (Jackson Immuno Research) diluted 1:8,000 in PBST (100 μL/well) and incubated for 1 hour at 37° C. […] 1 M H₂SO₄ (50 μL/well) was used to stop the reaction. […] Hybridoma mini-pools with absorbance values of more than 1.0 were selected for further screening.
The purified antibodies were 2-fold serial diluted for eleven rounds starting from 2 μg/mL until reaching the final concentration of 0.977 ng/mL. The PD-1 binding activity of purified antibodies was evaluated by ELISA following the procedure mentioned in Example 2. The half-maximal effective concentration (EC₅₀) was calculated using GraphPad Prism® software.
In general terms: ELISA stands for enzyme-linked immunosorbent assay.
Usually EC50 stands for the concentration giving half of the maximal effect. In the case of B6, the EC50 was determined as 0.0494 µg/mL.
The same measure, in the same setting: for B7 the value was 0.0342 µg/mL; for B8, 0.109 µg/mL.
As to B9, the EC50 is 0.104 µg/mL.
Take B10: the EC50 is 0.0442 µg/mL.
Same read-out and setting: next, B11: 0.074 µg/mL.
Still for that read-out and setting: for B12 the value was 0.0701 µg/mL.

A further experiment shares this target. The experiment can be described thus: ELISA, PD-1 His-tag coated on plate, anti-human IgG Fc-HRP detection. The procedure: as §2
The purified chimeric antibodies were 2-fold serial diluted for eleven rounds starting from […] until reaching the final concentration of 0.977 ng/mL. The PD-1 binding activity of purified chimeric antibodies was evaluated by ELISA following the procedure mentioned in Example 2, while the goat anti-human IgG Fcγ-HRP antibody (Jackson Immuno Research) diluted 1:10.000 in PBST was used to detect chimeric antibodies.
For B1, the EC50 turned out to be 0.0284 µg/mL.
As to B2, the concentration giving a half-maximal response (EC50) came to 0.0894 µg/mL.
On to B3, for which the half-maximal effective concentration (EC50) was found to be 0.0437 µg/mL.
As to B4, the EC50 was 0.0347 µg/mL.

For a further experiment, the target named is T2, human PD-1 on PD-1-expressing Jurkat effector cells (human, UniProt Q15116 25-288). In words: cell-based or functional assay.
T2 sequence (Q15116 25-288): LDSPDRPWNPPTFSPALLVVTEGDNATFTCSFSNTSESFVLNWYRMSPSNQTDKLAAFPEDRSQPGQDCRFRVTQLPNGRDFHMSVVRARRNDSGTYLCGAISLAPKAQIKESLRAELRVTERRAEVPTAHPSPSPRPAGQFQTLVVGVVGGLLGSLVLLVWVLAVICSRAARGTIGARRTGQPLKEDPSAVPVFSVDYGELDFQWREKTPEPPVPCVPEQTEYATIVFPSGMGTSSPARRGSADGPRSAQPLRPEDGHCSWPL
For B6, the “PD-1/PD-L1 blockade bioassay, IC50” value stood at 0.843 µg/mL.
With B7, the “PD-1/PD-L1 blockade bioassay, IC50” value was 1.21 µg/mL.
Same read-out and setting: for B8 the value was 2.71 µg/mL; for B9, 6.58 µg/mL; for B10, 0.846 µg/mL.
The same measure, in the same setting: for B11 the value was 1.83 µg/mL; for B12, 2.43 µg/mL.

A further experiment deals with T1, recombinant human PD-1 His-tag protein …. The experiment can be described thus: SPR, Biacore T200, as in Example 8 (antibody on Protein G chip, PD-1 His-tag injected). The procedure: as §1
As to B13, the Kd was 0.0237 nM, the koff was found to be 0.000142 s⁻¹ and the kon turned out to be 6e+06 M⁻¹ s⁻¹.
For the molecule B14, the Kd is 0.0208 nM, the koff stood at 9.31e-05 s⁻¹ and the kon came out at 4.48e+06 M⁻¹ s⁻¹.
For B15, the Kd stood at 0.0155 nM, the koff worked out at 7.27e-05 s⁻¹ and the kon was found to be 4.68e+06 M⁻¹ s⁻¹.
On to B16, for which the Kd was 0.0159 nM, the koff stood at 7.02e-05 s⁻¹ and the kon turned out to be 4.42e+06 M⁻¹ s⁻¹.

A further experiment deals with T2, human PD-1 on PD-1-expressing Jurkat …. The experiment can be described thus: cell-based or functional assay. This is another data set of the same source.
Regarding B1, the “PD-1/PD-L1 blockade bioassay, IC50” value came out at 0.593 µg/mL.
On the same count and under the same terms, for B2 the value was 2.93 µg/mL.
On the same count and under the same terms, for B3 the value was 0.43 µg/mL; for B4, 0.455 µg/mL.
